Experimental data from patent publication US20250127918A1, “SITE-SELECTIVE CONJUGATION OF A PHARMACEUTICAL AGENT TO AN ANTIBODY USING AN AFFINITY PEPTIDE” (priority 2023, published 2025).

Experiments:
[1] = Whole-body biodistribution of [89Zr]Zr-labelled affinity peptides after subcutaneous injection (gamma counter); conditions: mouse, in vivo, sc
[2] = molecular target: T1, Trastuzumab (Homo sapiens, UniProt P01857, D239E/L241M); test: Bioconjugation handle / GLP1 transfer to trastuzumab, analyzed by Q-ToF LC-MS; assay type: biochemical; conditions: 10 equivalents, 100 mM HEPES pH 8.5, room temperature, 24 h
T1 construct: purchased Syd Labs Inc; MedChemExpress LLC; Bio X Cell

[3] = molecular target: T1, Trastuzumab; test: as above; assay type: biochemical
Protocol: The conversion rate for each reaction was calculated by one of the following methods. Determination by LC-MS: Reported yields based on LC-MS spectra were determined by extracting the total ion current (TIC) spectra of all protein-containing species in the chromatogram utilizing Agilent MassHunter 6.0 software with BioConfirm package. These extracted chromatograms were deconvoluted utilizing a maximum entropy algorithm and abundance of each species determined using total ion count.
A reaction solution corresponding to 9.0 μg of IgG was taken into a PCR tube and diluted with Tris buffer (100 mM, pH 8.1) to a final volume of 6 μL. […] Afterward, DTT (200 mM in water, 2 μL) was added, and the mixture was further incubated at 37° C. for 1 hour. Finally, the solution was diluted to a volume of 40 μL with a mixture of water and acetonitrile (95:5), and 8 μL of the diluted solution was injected into LC-MS.
Reactions were performed on a 20 μL scale using 0.2 mL PCR tubes (FIG. 61). First, the electrophile-attached Z33 peptide reagent was dissolved in water to prepare a 2 mg/mL solution. Trastuzumab (MedChemExpress LLC. or Bio X Cell), electrophile-attached Z33 peptide reagent (2 mg/mL), and buffer were added to achieve final concentrations of 10 μM, 200 μM, and values listed in the following table, respectively. If the HEPES was used as a buffer, NaCl solution (4M, 1 uL) was added to the reaction mixture. […] The resulting reaction solution was quenched with a 100 mM glycine buffer of 100 mM Tris buffer and analyzed by LC-MS. Sample preparation for LC-MS analysis was performed in the same manner previously described. […] Therefore, a post-processing step was implemented to remove electrophiles using an Amicon® filter. The reaction mixture was diluted to 200 μL with citrate buffer (100 mM, pH 2.7) and filtered through an Amicon® filter (0.5 mL, 50KMWCO) at 14000 rcf for 7 minutes. […]
Reactions were performed on a 20 μL scale using 0.2 mL PCR tubes (FIG. 61). […] The resulting reaction solution was quenched with a 100 mM Tris buffer and analyzed by LC-MS (FIG. 53, Table 8).

FNMQQQRRFYEALHD PNLNHcyEQRNAKIKSI RDD [PEL-21]
Time detectable in the kidneys [1]: up to 240 hours | Light chain total conversion [2]: 5% | Light chain total conversion ([3]; 20 equivalents, PBS, room temperature, 24 h): 12% | Light chains modified with the electrophile ([3]; hIgG1-2, excess (20 eq.) reagent): less than 2% | Modifications incorporated into the heavy chain of Tmab ([3]; hIgG1 trastuzumab (1 eq.), peptide 20 eq., after 24 h): up to 99%
